First the molecules themselves.
T1: AGT (alanine:glyoxylate aminotransferase 1), AGT WT (Homo sapiens, UniProt P21549)
T1 construct: gene AGXT; apo-form prepared with L-alanine; dimer
T1 sequence (P21549 1-392): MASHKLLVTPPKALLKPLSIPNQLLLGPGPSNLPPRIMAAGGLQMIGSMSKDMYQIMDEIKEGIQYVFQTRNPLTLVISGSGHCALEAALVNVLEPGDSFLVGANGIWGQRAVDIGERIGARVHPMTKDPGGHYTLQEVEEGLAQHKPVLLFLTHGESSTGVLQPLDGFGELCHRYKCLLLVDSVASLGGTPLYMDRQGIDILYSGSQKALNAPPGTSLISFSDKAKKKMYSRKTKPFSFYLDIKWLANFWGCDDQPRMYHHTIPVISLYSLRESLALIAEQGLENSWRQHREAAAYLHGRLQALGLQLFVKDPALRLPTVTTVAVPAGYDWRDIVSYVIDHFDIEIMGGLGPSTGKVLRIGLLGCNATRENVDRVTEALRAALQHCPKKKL

B1: Alanine:glyoxylate aminotransferase (AGT) WT (enzyme, human, UniProt P21549 1-392, looked up)
chain: T1 sequence (P21549 1-392)
notes: also called wild-type; major allele
B2: AGT LM-p.I244T p.S81A (enzyme, human, UniProt P21549 1-392, looked up)
chain: T1 sequence (P21549 1-392) with P11L, S81A, I244T, I340M
notes: Alanine:glyoxylate aminotransferase (AGT), human, LM-p.I244T background with S81A; site-directed mutant of the pCOLDII construct of m4; also called set A81
B3: AGT LM p.S81D (enzyme, human, UniProt P21549 1-392, looked up)
chain: T1 sequence (P21549 1-392) with P11L, S81D, I340M
notes: Alanine:glyoxylate aminotransferase (AGT), human, minor allele (LM) background with the phosphomimetic S81D; site-directed mutant of the pCOLDII construct of m2; also called set D81
B4: AGT WT p.S81A (enzyme, human, UniProt P21549 1-392, looked up)
chain: T1 sequence (P21549 1-392) with S81A
notes: Alanine:glyoxylate aminotransferase (AGT), human, wild-type background with S81A; site-directed mutant of the pCOLDII construct of m1; also called set A81
B5: AGT LM-p.I244T (enzyme, human, UniProt P21549 1-392, looked up)
chain: T1 sequence (P21549 1-392) with P11L, I244T, I340M
notes: Alanine:glyoxylate aminotransferase (AGT), human, minor allele (LM) with the PH1-associated variant p.I244T; also called set S81
B6: AGT LM (minor allele, p.P11L and p.I340M) (enzyme, human, UniProt P21549 1-392, looked up)
chain: T1 sequence (P21549 1-392) with P11L, I340M
notes: Alanine:glyoxylate aminotransferase (AGT), human, common polymorphic minor allele (LM); also called set S81
B7: AGT LM-p.G170R (enzyme, human, UniProt P21549 1-392, looked up)
chain: T1 sequence (P21549 1-392) with P11L, G170R, I340M
notes: Alanine:glyoxylate aminotransferase (AGT), human, minor allele (LM) with the PH1-associated variant p.G170R; also called set S81
B8: AGT LM p.S81A (enzyme, human, UniProt P21549 1-392, looked up)
chain: T1 sequence (P21549 1-392) with P11L, S81A, I340M
notes: Alanine:glyoxylate aminotransferase (AGT), human, minor allele (LM) background with S81A; site-directed mutant of the pCOLDII construct of m2; also called set A81
B9: AGT LM-p.G170R p.S81A (enzyme, human, UniProt P21549 1-392, looked up)
chain: T1 sequence (P21549 1-392) with P11L, S81A, G170R, I340M
notes: Alanine:glyoxylate aminotransferase (AGT), human, LM-p.G170R background with S81A; site-directed mutant of the pCOLDII construct of m3; also called set A81
B10: AGT WT p.S81D (enzyme, human, UniProt P21549 1-392, looked up)
chain: T1 sequence (P21549 1-392) with S81D
notes: Alanine:glyoxylate aminotransferase (AGT), human, wild-type background with the phosphomimetic S81D; site-directed mutant of the pCOLDII construct of m1; also called set D81
B11: AGT LM-p.G170R p.S81D (enzyme, human, UniProt P21549 1-392, looked up)
chain: T1 sequence (P21549 1-392) with P11L, S81D, G170R, I340M
notes: Alanine:glyoxylate aminotransferase (AGT), human, LM-p.G170R background with the phosphomimetic S81D; site-directed mutant of the pCOLDII construct of m3; also called set D81
B12: AGT LM-p.I244T p.S81D (enzyme, human, UniProt P21549 1-392, looked up)
chain: T1 sequence (P21549 1-392) with P11L, S81D, I244T, I340M
notes: Alanine:glyoxylate aminotransferase (AGT), human, LM-p.I244T background with the phosphomimetic S81D; site-directed mutant of the pCOLDII construct of m4; also called set D81

Positions count from the first letter of the chain named. Numbers in names are those of the source.

One data set concerns the molecule itself. The data set can be described thus: dynamic light scattering; 10 µM AGT as purified, 25 °C, 20 mM HEPES (sodium salt), 200 mM NaCl, pH 7.4; hydrodynamic radius assuming spherical particles (Stokes-Einstein).
Details: not given
Turning to B1, the stoichiometry N – broadly, the number of molecules, sites or subunits per partner or assembly – was 2. Still for that read-out and setting: under B2 stands 2; under B3, 2. Same read-out and setting: under B4 stands 2. Same read-out and setting: under B5 stands 2. On to B6, for which the “stoichiometry N” value stood at 2.

B7: the “stoichiometry N” value was found to be 2.

Consider B8, for which the “stoichiometry N” value was determined as 2.

As to B9, the “stoichiometry N” value was found to be 2. In the case of B10, the “stoichiometry N” value is 2. Still for that read-out and setting: under B11 stands 2.

In the case of B12, the “stoichiometry N” value stood at 2.

Another data set addresses T1, AGT (alanine:glyoxylate aminotransferase 1), AGT WT. The data set can be described thus: absorption and near-UV/visible CD after L-alanine; 30-kDa filtration for released PMP. To be noted: 20 uM holo-AGT, 200 mM L-alanine, 25 C, HEPES 20 mM, NaCl 200 mM, pH 7.4. The class given is biochemical.
As for `Cc1ncc(COP(=O)(O)O)c(CN)c1O` [PMP], the “absorption and near-UV/visible CD after L-alanine; 30-kDa filtration for release” value is “the CD signal associated with PMP formation, clearly present in S81 and A81 sets”.

The values above are taken from paper PMC13079258, “Impact of Ser81 phosphorylation on alanine: glyoxylate aminotransferase associated with Primary hyperoxaluria type I” (Molecular Biomedicine, 2026).
